In PMC12213002:

Legend:
[1] = endogenous DDX3X western blot, HEK293T
[2] = FLAG western blot, transfected HEK293T, normalised to β-tubulin; conditions: glycan lost; control: FLAG-DDX3X WT
[3] = MG132 rescue of FLAG-DDX3X levels, P2A-GFP normalised; conditions: glycan lost; control: FLAG-DDX3X WT
[4] = cycloheximide chase, FLAG western blot, HEK293T; conditions: glycan lost; control: FLAG-DDX3X WT
[5] = total DDX3X western blot, siRNA knock-down/rescue; conditions: glycan lost; control: siDDX3X + SIR FLAG-DDX3X WT

B1: DDX3X: OGT siRNA (protein)
parent chain: MSHVAVENALGLDQQFAGLDLNSSDNQSGGSTASKGRYIPPHLRNREATKGFYDKDSSGWSSSKDKDAYSSFGSRSDSRGKSSFFSDRGSGSRGRFDDRGRSDYDGIGSRGDRSGFGKFERGGNSRWCDKSDEDDWSKPLPPSERLEQELFSGGNTGINFEKYDDIPVEATGNNCPPHIESFSDVEMGEIIMGNIELTRYTRPTPVQKHAIPIIKEKRDLMACAQTGSGKTAAFLLPILSQIYSDGPGEALRAMKENGRYGRRKQYPISLVLAPTRELAVQIYEEARKFSYRSRVRPCVVYGGADIGQQIRDLERGCHLLVATPGRLVDMMERGKIGLDFCKYLVLDEADRMLDMGFEPQIRRIVEQDTMPPKGVRHTMMFSATFPKEIQMLARDFLDEYIFLAVGRVGSTSENITQKVVWVEESDKRSFLLDLLNATGKDSLTLVFVETKKGADSLEDFLYHEGYACTSIHGDRSQRDREEALHQFRSGKSPILVATAVAARGLDISNVKHVINFDLPSDIEEYVHRIGRTGRVGNLGLATSFFNERNINITKDLLDLLVEAKQEVPSWLENMAYEHHYKGSSRGRSKSSRFSGGFGARDYRQSSGASSSSFSSSRASSSRSGGGGHGSSRGFGGGGYGGFYNSDGYGGNYNSQGVDWWGN
- expression_or_secretion ([1]; glycan lost, control: siRNA against firefly luciferase): decreases

B2: DDX3X: Ser584Ala (protein)
parent chain: MSHVAVENALGLDQQFAGLDLNSSDNQSGGSTASKGRYIPPHLRNREATKGFYDKDSSGWSSSKDKDAYSSFGSRSDSRGKSSFFSDRGSGSRGRFDDRGRSDYDGIGSRGDRSGFGKFERGGNSRWCDKSDEDDWSKPLPPSERLEQELFSGGNTGINFEKYDDIPVEATGNNCPPHIESFSDVEMGEIIMGNIELTRYTRPTPVQKHAIPIIKEKRDLMACAQTGSGKTAAFLLPILSQIYSDGPGEALRAMKENGRYGRRKQYPISLVLAPTRELAVQIYEEARKFSYRSRVRPCVVYGGADIGQQIRDLERGCHLLVATPGRLVDMMERGKIGLDFCKYLVLDEADRMLDMGFEPQIRRIVEQDTMPPKGVRHTMMFSATFPKEIQMLARDFLDEYIFLAVGRVGSTSENITQKVVWVEESDKRSFLLDLLNATGKDSLTLVFVETKKGADSLEDFLYHEGYACTSIHGDRSQRDREEALHQFRSGKSPILVATAVAARGLDISNVKHVINFDLPSDIEEYVHRIGRTGRVGNLGLATSFFNERNINITKDLLDLLVEAKQEVPSWLENMAYEHHYKGSSRGRSKSSRFSGGFGARDYRQSSGASSSSFSSSRASSSRSGGGGHGSSRGFGGGGYGGFYNSDGYGGNYNSQGVDWWGN
- expression_or_secretion, percent_of_wt [2]: decreases
- degradation_or_half_life, other: proteasome-dependent loss of protein [3]: decreases
- degradation_or_half_life, other: turnover rate [4]: decreases

B3: DDX3X: FLAG-OGT WT over-expression (protein)
parent chain: MSHVAVENALGLDQQFAGLDLNSSDNQSGGSTASKGRYIPPHLRNREATKGFYDKDSSGWSSSKDKDAYSSFGSRSDSRGKSSFFSDRGSGSRGRFDDRGRSDYDGIGSRGDRSGFGKFERGGNSRWCDKSDEDDWSKPLPPSERLEQELFSGGNTGINFEKYDDIPVEATGNNCPPHIESFSDVEMGEIIMGNIELTRYTRPTPVQKHAIPIIKEKRDLMACAQTGSGKTAAFLLPILSQIYSDGPGEALRAMKENGRYGRRKQYPISLVLAPTRELAVQIYEEARKFSYRSRVRPCVVYGGADIGQQIRDLERGCHLLVATPGRLVDMMERGKIGLDFCKYLVLDEADRMLDMGFEPQIRRIVEQDTMPPKGVRHTMMFSATFPKEIQMLARDFLDEYIFLAVGRVGSTSENITQKVVWVEESDKRSFLLDLLNATGKDSLTLVFVETKKGADSLEDFLYHEGYACTSIHGDRSQRDREEALHQFRSGKSPILVATAVAARGLDISNVKHVINFDLPSDIEEYVHRIGRTGRVGNLGLATSFFNERNINITKDLLDLLVEAKQEVPSWLENMAYEHHYKGSSRGRSKSSRFSGGFGARDYRQSSGASSSSFSSSRASSSRSGGGGHGSSRGFGGGGYGGFYNSDGYGGNYNSQGVDWWGN
- expression_or_secretion ([1]; glycan gained, control: FLAG-empty vector): increases

B4: DDX3X: SIR FLAG-DDX3X Ser584Ala (protein)
parent chain: MSHVAVENALGLDQQFAGLDLNSSDNQSGGSTASKGRYIPPHLRNREATKGFYDKDSSGWSSSKDKDAYSSFGSRSDSRGKSSFFSDRGSGSRGRFDDRGRSDYDGIGSRGDRSGFGKFERGGNSRWCDKSDEDDWSKPLPPSERLEQELFSGGNTGINFEKYDDIPVEATGNNCPPHIESFSDVEMGEIIMGNIELTRYTRPTPVQKHAIPIIKEKRDLMACAQTGSGKTAAFLLPILSQIYSDGPGEALRAMKENGRYGRRKQYPISLVLAPTRELAVQIYEEARKFSYRSRVRPCVVYGGADIGQQIRDLERGCHLLVATPGRLVDMMERGKIGLDFCKYLVLDEADRMLDMGFEPQIRRIVEQDTMPPKGVRHTMMFSATFPKEIQMLARDFLDEYIFLAVGRVGSTSENITQKVVWVEESDKRSFLLDLLNATGKDSLTLVFVETKKGADSLEDFLYHEGYACTSIHGDRSQRDREEALHQFRSGKSPILVATAVAARGLDISNVKHVINFDLPSDIEEYVHRIGRTGRVGNLGLATSFFNERNINITKDLLDLLVEAKQEVPSWLENMAYEHHYKGSSRGRSKSSRFSGGFGARDYRQSSGASSSSFSSSRASSSRSGGGGHGSSRGFGGGGYGGFYNSDGYGGNYNSQGVDWWGN
- expression_or_secretion [5]: decreases
